B1: T-VEGF: SEQ ID NO: 1 peptide C-terminal linked to N-terminal of VEGF via GG linker (protein)
chain: NGSLNTHLAPILGGAPMAEGGGQNHHEVVKFMDVYQRSYCHPIETLVDIFQEYPDEIEYIFKPSCVPLMRCGGCCNDEGLECVPTEESNITMQIMRIKPHQGQHIGEMSFLQHNKCECRPKKDRARQENPCGPCSERRKHLFVQDPQTCKCSCKNTDSRCKARQLELNERTCRCDKPRR
modifications: Synthetic Fusion protein of T-VEGF
B2: KGF: keratinocyte growth factor having an amino acid sequence of SEQ ID NO: 44 (protein)
chain: CNDMTPEQMATNVNCSSPERHTRSYDYMEGGDIRVRRLFCRTQWYLRIDKRGKVKGTQEMKNNYNIMEIRTVAVGIVAIKGVESEFYLAMNKEGKLYAKKECNEDCNFKELILENHYNTYASAKWTHNGGEMFVALNQKGIPVRGKKTKKEQKTAHFLPMAIT
modifications: Human KGF
B3: T-KGF: SEQ ID NO: 1 peptide C-terminal linked to N-terminal of KGF via GG linker (protein)
chain: NGSLNTHLAPILGGCNDMTPEQMATNVNCSSPERHTRSYDYMEGGDIRVRRLFCRTQWYLRIDKRGKVKGTQEMKNNYNIMEIRTVAVGIVAIKGVESEFYLAMNKEGKLYAKKECNEDCNFKELILENHYNTYASAKWTHNGGEMFVALNQKGIPVRGKKTKKEQKTAHFLPMAIT
modifications: Synthetic Fusion protein of T-KGF

Tests used:
[1] = Skin penetrability of growth factor fusion proteins (Franz glass cell, ELISA); assay type: in vitro ADME, porcine; settings: for Penetrated amount (%): 2 μg, 16 hours; for skin penetrability compared with the unfused protein: summary of Tables 7, 12, 16, 20, 24
Experimental: (§1) Specifically, porcine skin (thickness: 0.7 mm, Medikinetics) was placed between upper and lower ends of Franz glass cell (standard diameter: 9 mm, Receiver 5 mL, Permegear), and TBS (50 mM Tris pH 7.5, 150 mM NaCl) including 1% BSA and 0.01% Tween 20 was prepared. Then, 500 μL of the TBS was applied to the upper end of the glass cell (Donor chamber), and 5 mL of the TBS was applied to the lower end of the glass cell, (Receiver chamber). Subsequently, 2 μg of PDGFa or T-PDGFa was applied to the upper end of the glass cell, followed by reaction for 16 hours. Then, a concentration of PDGFa or T-PDGFa was quantitatively analyzed using the ELISA kit (R&D Systems), and a relative amount of T-PDGFa to PDGFa was calculated as a penetrated amount (Table 7).
Specifically, porcine skin (thickness: 0.7 mm, Medikinetics) was placed between upper and lower ends of Franz glass cell (standard diameter: 9 mm, Receiver 5 mL, Permegear), and TBS (50 mM Tris pH 7.5, 150 mM NaCl) including 1% BSA and 0.01% Tween 20 was prepared. Then, 500 μL of the TBS was applied to the upper end of the glass cell (Donor chamber), and 5 mL of the TBS was applied to the lower end of the glass cell, (Receiver chamber).
as §1, with “IGF-1” for “PDGFa”, “T-IGF-1” for “T-PDGFa”, “16).” for “7).”
as §1, with “KGF” for “PDGFa”, “T-KGF” for “T-PDGFa”, “20).” for “7).”
as §1, with “Tβ4” for “PDGFa”, “T-Tβ4” for “T-PDGFa”, “24).” for “7).”

[2] = Skin retentivity of growth factor fusion proteins (porcine skin disrupted, ELISA); assay type: in vitro ADME; settings: for Remaining amount (%): skin after 16 hours penetration test; for skin retentivity higher than the unfused protein: summary of Tables 8, 13, 17, 21, 25
Experimental: (§2) Specifically, the porcine skin remained after the experiment of Example 3-2-4 was recovered, frozen in liquid nitrogen, and disrupted. An amount of PDGFa or T-PDGFa contained therein was quantitatively analyzed using the ELISA kit (R&D Systems). In addition, a relative amount of T-PDGFa to PDGFa was calculated as a remaining amount (Table 8).
Specifically, the porcine skin remained after the experiment of Example 3-3-4 was recovered, frozen in liquid nitrogen, and disrupted. An amount of VEGF or T-VEGF contained therein was quantitatively analyzed using the ELISA kit (R&D Systems).
as §2, with “3-4-4” for “3-2-4”, “IGF-1” for “PDGFa”, “T-IGF-1” for “T-PDGFa”, “17).” for “8).”
as §2, with “3-5-3” for “3-2-4”, “KGF” for “PDGFa”, “T-KGF” for “T-PDGFa”, “21).” for “8).”
as §2, with “3-6-3” for “3-2-4”, “Tβ4” for “PDGFa”, “T-Tβ4” for “T-PDGFa”, “25).” for “8).”

Molecule	Penetrated amount (%) ([1]; relative to VEGF)	skin penetrability compared with the unfused protein [1]	Remaining amount (%) ([2]; relative to VEGF)	skin retentivity higher than the unfused protein [2]	Penetrated amount (%) ([1]; relative to KGF)	Remaining amount (%) ([2]; relative to KGF)
B1	295 ± 21%	about three times higher	9,800 ± 790%	about 100 times		
B2					100 ± 18%	100 ± 17%
B3		about three times higher		about 100 times	310 ± 12%	9,700 ± 850%

Source: US20200165312A1, “COSMETIC COMPOSITION FOR IMPROVING SKIN CONDITIONS COMPRISING FUSION PROTEIN INCLUDING SKIN PENETRATION ENHANCING PEPTIDE” (LG HOUSEHOLD & HEALTH CARE LTD., priority 2017, published 2020)
